Assays:
Assay in all cases: cell_activity
[1] = tested on: SCL enhancer TALE-LSD1 fusion (synthetic construct; LSD1 Homo sapiens); conditions: K562 ChIP-qPCR vs mCherry; H3K27ac reduced >4-fold; target assigned to #4 by inference
[2] = tested on: TALE #11-LSD1 fusion (ZFPM2 +16 enhancer) (synthetic construct; LSD1 Homo sapiens); conditions: K562; histone modification levels reduced at target; expression change not statistically significant; +16 assigned to #11 from coordinates
[3] = tested on: TALE #28-LSD1 fusion (ZFPM2 +45 enhancer) (synthetic construct; LSD1 Homo sapiens); conditions: K562; histone modification levels reduced at target; expression change not statistically significant; +45 assigned to #28 from coordinates
[4] = tested on: TALE #14-LSD1 fusion (synthetic construct; LSD1 Homo sapiens); conditions: K562 3'DGE confirmed by RT-qPCR; #14 identified via cDNA qPCR primer set in Table 2
[5] = tested on: TALE #25-LSD1 fusion (ZFPM2 +10 enhancer) (synthetic construct; LSD1 Homo sapiens); conditions: K562 RT-qPCR; TALE #25 without LSD1 had no effect on ZFPM2

TCCGTGGCTGCCAGTCTG (double strand) [SCL enhancer TALE target (TALE #4, chr1:47,647,018)]
activity (fold H3K4me2 reduction) [1]: 3

TCCAGTCCCTGGCTCCCATG (double strand) [TALE #11 target chr8:106,347,824]
activity (% ZFPM2 expression reduction) [2]: 13

TAAGTCTACATATAGTATCC (double strand) [TALE #28 target chr8:106,376,850]
activity (% ZFPM2 expression reduction) [3]: 22

TAGCCGCGAGGAAGGCG (double strand) [TALE #14 target chrX:49,023,709]
activity (fold nearby gene down-regulation) [4]: > 1.5

TTAAGCTTCTGAAGTCAG (double strand) [TALE #25 target chr8:106,341,287]
activity (fold ZFPM2 expression reduction) [5]: 2

From patent US20190359951
